From article PMC6404581, “Staphylococcus aureus toxin LukSF dissociates from its membrane receptor target to enable renewed ligand sequestration” (The FASEB Journal, 2018)

T1: wild-type Staphylococcus aureus leukocidin S (Staphylococcus aureus, UniProt O80066 29-312)
T1 construct: also called S(wt); LukS; source: E. coli Rosetta-gami 2 (DE3) pLysS, purified (nickel HisTrap, Superdex 75)
T1 sequence: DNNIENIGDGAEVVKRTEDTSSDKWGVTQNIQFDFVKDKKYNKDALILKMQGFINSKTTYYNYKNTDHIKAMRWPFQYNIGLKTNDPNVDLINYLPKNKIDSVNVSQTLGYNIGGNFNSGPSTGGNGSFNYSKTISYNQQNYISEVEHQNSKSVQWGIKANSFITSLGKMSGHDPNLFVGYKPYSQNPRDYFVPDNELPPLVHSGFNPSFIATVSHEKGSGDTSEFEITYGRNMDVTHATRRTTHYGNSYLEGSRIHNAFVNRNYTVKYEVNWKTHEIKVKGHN

B1: G130D leukocidin component F (natural protein, Staphylococcus aureus)
chain: MGSQHITPVSEKKVDDKITLYKTTATSDSDKLKISQILTFNFIKDKSYDKDTLILKAAGNIYSGYTKPNPKDTISSQFYWGSKYNISINSDSNDSVNVVDYAPKNQNEEFQVQQTVGYSYGGDINISNGLSGDGNGSKSFSETINYKQESYRTSLDKRTNFKKIGWDVEAHKIMNNGWGPYGRDSYHSTYGNEMFLGSRQSNLNAGQNFLEYHKMPVLSRGNFNPEFIGVLSRKQNAAKKSKITVTYQREMDRYTNFWNQLHWIGNNYKDENRATHTSIYEVDWENHTVKLIDTQSKEKNPMSAAA
notes: cloning residues before LukF; LukF-PV, S. aureus; they already carry the D (LSGDGNG); residues from the NotI site between LukF and the C-terminal His6; also called F(G130D); LukF mutant G130D LukF; source: E. coli Rosetta-gami 2 (DE3) pLysS, purified (nickel HisTrap, Superdex 75)

Columns and labels:
[1] = molecular target: human C5a receptor, endogenous on human polymorphonuclear cells (human (endogenous in PMNs)) (UniProt P21730)
human C5a receptor, endogenous on human polymorphonuclear cells (human (endogenous in PMNs)), sequence (P21730 whole entry): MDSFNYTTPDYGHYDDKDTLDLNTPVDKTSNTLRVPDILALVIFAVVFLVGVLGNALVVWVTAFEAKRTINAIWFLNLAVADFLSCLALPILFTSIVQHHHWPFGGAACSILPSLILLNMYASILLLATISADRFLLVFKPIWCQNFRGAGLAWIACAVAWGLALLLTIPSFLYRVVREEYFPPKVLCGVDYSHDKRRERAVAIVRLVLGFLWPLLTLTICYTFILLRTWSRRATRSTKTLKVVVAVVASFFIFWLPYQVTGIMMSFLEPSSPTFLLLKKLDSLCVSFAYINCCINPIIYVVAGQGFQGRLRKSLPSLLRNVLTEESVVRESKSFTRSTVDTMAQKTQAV

[2] = molecular target: sortase-tagged FITC-labeled human C5a receptor, on HEK cells (human) (UniProt P21730); assay: FRET or BRET; sensitized emission FRET, live sortase-tagged FITC-hC5aR cells (donor) with Cy3 mS* (acceptor), 1 h at +4°C, washed, before addition of mF
sortase-tagged FITC-labeled human C5a receptor, on HEK cells (human), sequence (P21730 whole entry): as above

[3] = molecular target: sortase-tagged FITC-labeled human C5a receptor, on HEK cells (human) (UniProt P21730); assay: FRET or BRET; sensitized emission FRET, fixed FITC-hC5aR cells with one Cy3-labeled toxin component alone (Cy3 mS* or only Cy3 mF*), 30 min at 4°C then 10 min at 37°C, washed, fixed, PBS
[4] = molecular target: T1, wild-type Staphylococcus aureus …; assay: flow cytometry on cells; settings: both partners purified

Molecule | toxin concentration at which PMN permeabilization (DAPI uptake, flow cytometry, 30 min) reaches 100%; modified toxins in place of the wild-type ones [1] | FRET efficiency [2] | FRET efficiency [3] | binding result [4]
maleimide-labeled LukS-K281C-Y113H (natural protein) | 3 nM | 75% | 60% | –
B1 | – | – | – | binds
